Measured values reported in patent publication US20190218304A1 (INNATE PHARMA, published 2019).

How the values were obtained:
[1] = target: T1, human CD39 expressed on cells (human, UniProt P49961 1-510); assay: cell-based or functional assay
T1 sequence: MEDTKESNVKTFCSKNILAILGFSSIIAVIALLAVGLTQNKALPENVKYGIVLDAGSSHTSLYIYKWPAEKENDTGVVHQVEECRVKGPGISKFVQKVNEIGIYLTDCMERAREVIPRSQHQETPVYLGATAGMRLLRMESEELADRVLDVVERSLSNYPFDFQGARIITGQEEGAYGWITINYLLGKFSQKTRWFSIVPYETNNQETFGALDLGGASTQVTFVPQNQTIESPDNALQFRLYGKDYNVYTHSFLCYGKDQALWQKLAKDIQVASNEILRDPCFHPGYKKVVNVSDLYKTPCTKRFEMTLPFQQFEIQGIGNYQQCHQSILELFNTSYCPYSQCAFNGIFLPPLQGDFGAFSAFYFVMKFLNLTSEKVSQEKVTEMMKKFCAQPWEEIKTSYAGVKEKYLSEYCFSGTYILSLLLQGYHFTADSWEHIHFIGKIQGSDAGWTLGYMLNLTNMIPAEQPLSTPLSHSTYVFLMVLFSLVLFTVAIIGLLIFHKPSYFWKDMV

[2] = target: T2, recombinant human CD39-M2 extracellular domain protein (human, UniProt P49961 38-478); assay: cell-based or functional assay
T2 sequence: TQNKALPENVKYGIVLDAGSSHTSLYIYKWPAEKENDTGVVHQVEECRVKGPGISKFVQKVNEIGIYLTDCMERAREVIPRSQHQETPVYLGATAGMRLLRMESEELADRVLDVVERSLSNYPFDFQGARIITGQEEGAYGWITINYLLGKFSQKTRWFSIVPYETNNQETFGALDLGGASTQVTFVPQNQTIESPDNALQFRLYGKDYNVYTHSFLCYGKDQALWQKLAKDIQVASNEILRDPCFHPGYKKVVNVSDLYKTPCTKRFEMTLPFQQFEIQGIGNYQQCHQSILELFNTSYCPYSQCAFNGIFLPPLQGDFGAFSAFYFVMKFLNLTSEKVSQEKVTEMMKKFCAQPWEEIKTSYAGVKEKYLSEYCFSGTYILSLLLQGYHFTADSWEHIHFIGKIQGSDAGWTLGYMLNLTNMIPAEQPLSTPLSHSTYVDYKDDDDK

[3] = target: T1, human CD39 expressed on cells; assay: flow cytometry titration on Ramos lymphoma cells, second experiment; Ramos cells, second set of experiments
Description: (§1) Cells were incubated with various concentration of unlabeled anti-CD39 antibody from 30 μg/ml to 5×10⁻⁴ μg/ml, for 30 minutes at 4° C. After washes, cells were incubated with Goat anti-mouse H+L labeled secondary antibody for 30 min at 4° C.

Human CD39-L2 = target: T3, Human CD39-L2 (human, UniProt O75354 61-484, limits assumed); assay: ELISA on coated recombinant human CD39-L2 [panel huCD39 L2]
T3 construct: Recombinant protein coated in ELISA; also called NTPDase6; ENTPD6
T3 sequence: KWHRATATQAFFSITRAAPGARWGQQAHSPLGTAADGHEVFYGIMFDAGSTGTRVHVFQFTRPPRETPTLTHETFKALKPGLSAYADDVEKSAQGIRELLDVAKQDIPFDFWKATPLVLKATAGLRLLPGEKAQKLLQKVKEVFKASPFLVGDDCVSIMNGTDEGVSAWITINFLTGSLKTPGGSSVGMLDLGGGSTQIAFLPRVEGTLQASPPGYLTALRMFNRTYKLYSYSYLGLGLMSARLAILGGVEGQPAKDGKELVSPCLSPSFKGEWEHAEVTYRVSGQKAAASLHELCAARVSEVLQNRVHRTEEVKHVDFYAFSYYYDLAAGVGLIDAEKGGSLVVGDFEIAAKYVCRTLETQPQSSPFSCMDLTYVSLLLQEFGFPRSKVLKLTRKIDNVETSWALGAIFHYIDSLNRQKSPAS
Description: (§2) Wells were washed in TBS Tween 20, and further saturated 2H at RT in TBS Blocking buffer. Dose range concentration of primary antibody was incubated in TBS blocking buffer for 2 h at RT. Wells were washed in TBS Tween 20. […] Optical density was measured on Enspire™ at OD=450.

[4] = target: T1, human CD39 expressed on cells; assay: flow cytometry titration on CHO cells expressing human CD39, labeled secondary antibody [panel CHO-huCD39]
Description: as §1

Human CD39-L3 = target: T4, Human CD39-L3 (human, UniProt O75355 44-485, limits assumed); assay: ELISA on coated recombinant human CD39-L3 [panel huCD39 L3]
T4 construct: Recombinant protein coated in ELISA; also called NTPDase3; ENTPD3
T4 sequence: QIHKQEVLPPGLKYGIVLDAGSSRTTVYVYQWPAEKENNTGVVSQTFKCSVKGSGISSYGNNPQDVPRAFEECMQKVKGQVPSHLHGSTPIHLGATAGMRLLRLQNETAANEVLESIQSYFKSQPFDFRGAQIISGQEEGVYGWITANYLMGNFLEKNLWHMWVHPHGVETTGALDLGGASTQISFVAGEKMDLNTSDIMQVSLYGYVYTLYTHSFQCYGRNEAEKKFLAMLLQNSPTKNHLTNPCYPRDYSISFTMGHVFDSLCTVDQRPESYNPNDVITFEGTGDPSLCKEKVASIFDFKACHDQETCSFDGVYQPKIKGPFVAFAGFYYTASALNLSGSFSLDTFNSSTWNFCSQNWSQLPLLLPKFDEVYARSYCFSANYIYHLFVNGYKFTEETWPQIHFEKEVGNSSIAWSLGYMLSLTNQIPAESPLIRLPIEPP
Description: as §2

[5] = target: T1, human CD39 expressed on cells; assay: flow cytometry titration on Ramos lymphoma cells, first experiment; Ramos cells, first set of experiments
Description: as §1

B1: antibody I-394 (antibody, human IgG1, kappa, V domains shown)
VH: EVQLQQSGPELVKPGASVKMSCKASGYTFTDYNMHWVKQSHGRTLEWIGYIVPLNGGSTFNQKFKGRATLTVNTSSRTAYMELRSLTSEDSAAYYCARGGTRFAYWGQGTLVTVSA
VL: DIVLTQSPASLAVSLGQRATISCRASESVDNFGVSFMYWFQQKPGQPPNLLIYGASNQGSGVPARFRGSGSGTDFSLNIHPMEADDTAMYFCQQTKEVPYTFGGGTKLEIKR
notes: The hybridoma-derived mouse form was used in early screening
With B1 the “IC50 (inhibition of 50% of the enzymatic activity of CD39 expressed by 50,000 Ramos cells)” value [1] was 0.05 µg/mL, the “IC50, inhibition of the ATPase activity of soluble CD39 protein” value [2] was 0.003 µg/mL and the EC50 [3] was 0.19 µg/mL. For the same binder, the binding result (Human CD39-L2) was “no binding”, the “EC50 (read off the curve)” value [4] was roughly 0.2 µg/mL and the binding result (Human CD39-L3) was “no binding”. The EC50 [5] was 0.16 µg/mL.
